From paper PMC10483038

Target: MBP-Vpu full length (HIV-1 Vpu fused to maltose binding protein) (HIV-1) (UniProt P05919)
Assay: cryo-EM structure; single-particle cryoEM of MBP-FL Vpu at 10 µM in 25 mM Tris pH 7.4, 150 mM NaCl, 100 µM TCEP; two maps at ~25 Å; protomers counted by docking MBP into the densities

Substance “MBP-Vpu full length (HIV-1 Vpu fused to maltose binding protein) (from UniProt P05919 1-82) (natural protein)” has a stoichiometry N of 6 to 7.
